Legend:
HBx69-87 control peptide = molecular target: T1, HBx69-87 control peptide (Hepatitis B virus, UniProt P03165 69-87); experiment: ELISA with varying concentrations of peptide
T1 construct: range 69-87; also called HBx69-87 peptide
T1 peptide: CALRFTSARRMETTVNAHQ

[1] = molecular target: T2, HBx AD38 (genotype D) residue 27-50 peptide (Hepatitis B virus genotype D); experiment: ELISA, 100 ng/mL antibody with varying peptide concentration
T2 construct: also called HBx27-50; HBx27-50 peptide
T2 peptide: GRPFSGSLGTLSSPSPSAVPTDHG

B1: HBx M19 mouse monoclonal anti-HBx antibody (antibody, V domains shown)
VH: EVQLQQSGPELVKPGASVKISCQASGYTFTDYYMNWVKQSHGKRLEWIGDINPNNGGTAYNQKFKGKATLTVDRSSSTAYMEVRSLTSEDSAVYFCALLAYWGQGTLVTVSA
VL: DVVMTQTPLSLPVSLGDQASISCRSSQSLVYSDGNTHLHWYLQKTGQSPKLLIYKASNRFSGVPDRFSGSGSGTDFTLKISRVEAEDLGVYFCSQSTHVPLTFGAGTKLELKR
notes: also called aHBx mAb; αHBx mAb
- binding result (HBx69-87 control peptide): no binding (tested: 100 ng/mL antibody)
- binding result [1]: binds
